# In patent US20250243277A1 (AVACTA LIFE SCIENCES, published 2025):
# Where a chain is given by its changes, count along the chain named.
# B1: Clone 139 (designed binder)
# chain: MIPGGLSEAKPATPEIQEIVDKVKPQLEEKTGETYGKLEAVQYKTQVVGLIQPPYAQGTNYYIKVRAGDNKYMHLKVFKSLGWQYIDLFHEDLVLTGYQVDKNKDDELTGF
# notes: His-tagged
# B2: Clone 148 (designed binder)
# chain: MIPGGLSEAKPATPEIQEIVDKVKPQLEEKTGETYGKLEAVQYKTQVVRDYDPFPYTGTNYYIKVRAGDNKYMHLKVFKSLWRGPGPYAIEDLVLTGYQVDKNKDDELTGF
# notes: His-tagged
# B3: Clone 144 (designed binder)
# chain: MIPGGLSEAKPATPEIQEIVDKVKPQLEEKTGETYGKLEAVQYKTQVVAYQSPPYHFGTNYYIKVRAGDNKYMHLKVFKSLRQIAGYIAIEDLVLTGYQVDKNKDDELTGF
# notes: His-tagged
# B4: Clone 167 (designed binder)
# chain: MIPGGLSEAKPATPEIQEIVDKVKPQLEEKTGETYGKLEAVQYKTQVVYRNKQWYNEGTNYYIKVRAGDNKYMHLKVFKSLKIGYLEFVLEDLVLTGYQVDKNKDDELTGF
# notes: His-tagged
# B5: Clone 208 (designed binder)
# chain: B4 chain with Y49Q, R50W, N51K, Q53T, W54Q, N56F, E57F, K82R, V89E, L90I
# notes: His-tagged
# B6: Clone 153 (designed binder)
# chain: MIPGGLSEAKPATPEIQEIVDKVKPQLEEKTGETYGKLEAVQYKTQVVYPWSWNGHYGTNYYIKVRAGDNKYMHLKVFKSLIKYPFARAEEDLVLTGYQVDKNKDDELTGF
# notes: His-tagged
# B7: Clone 223 (designed binder)
# chain: MIPGGLSEAKPATPEIQEIVDKVKPQLEEKTGETYGKLEAVQYKTQVVFPWDQENYYGTNYYIKVRAGDNKYMHLKVFKSLIKEPFIKNVEDLVLTGYQVDKNKDDELTGF
# notes: His-tagged
# B8: Clone 140 (designed binder)
# chain: MIPGGLSEAKPATPEIQEIVDKVKPQLEEKTGETYGKLEAVQYKTQVVRQVGVWAYEGTNYYIKVRAGDNKYMHLKVFKSLGRTVEGGRWEDLVLTGYQVDKNKDDELTGF
# notes: His-tagged
# B9: Clone 174 (designed binder)
# chain: B8 chain with G52T, V53I, A55H, Y56F, V85E, E86V, G87E, R89S, W90F
# notes: His-tagged
# B10: Clone 152 (designed binder)
# chain: MIPGGLSEAKPATPEIQEIVDKVKPQLEEKTGETYGKLEAVQYKTQVVRAQLRPWVAGTNYYIKVRAGDNKYMHLKVFKSLGWNEEARPPEDLVLTGYQVDKNKDDELTGF
# notes: His-tagged
# B11: Clone 158 (designed binder)
# chain: MIPGGLSEAKPATPEIQEIVDKVKPQLEEKTGETYGKLEAVQYKTQVVDNVANIVPHGTNYYIKVRAGDNKYMHLKVFKSLGWNYEHKWPEDLVLTGYQVDKNKDDELTGF
# notes: His-tagged
# B12: Clone 138 (designed binder)
# chain: MIPGGLSEAKPATPEIQEIVDKVKPQLEEKTGETYGKLEAVQYKTQVVDNVRHGWLSGTNYYIKVRAGDNKYMHLKVFKSLFALLWSAYGEDLVLTGYQVDKNKDDELTGF
# notes: His-tagged
# B13: Clone 17 (designed binder)
# chain: MIPGGLSEAKPATPEIQEIVDKVKPQLEEKTGETYGKLEAVQYKTQVVIVYTIWNYVGTNYYIKVRAGDNKYMHLKVFKSLTPQTETEHEEDLVLTGYQVDKNKDDELTGF
# notes: His-tagged
# B14: Clone 166 (designed binder)
# chain: MIPGGLSEAKPATPEIQEIVDKVKPQLEEKTGETYGKLEAVQYKTQVVVAGLKWHWEGTNYYIKVRAGDNKYMHLKVFKSLIYASQYDYREDLVLTGYQVDKNKDDELTGF
# notes: His-tagged
# B15: Clone 146 (designed binder)
# chain: MIPGGLSEAKPATPEIQEIVDKVKPQLEEKTGETYGKLEAVQYKTQVVSKRSAWHWTGTNYYIKVRAGDNKYMHLKVFKSLFWNAPDDRQEDLVLTGYQVDKNKDDELTGF
# notes: His-tagged
# B16: Clone 171 (designed binder)
# chain: MIPGGLSEAKPATPEIQEIVDKVKPQLEEKTGETYGKLEAVQYKTQVVIDHQNHPTEGTNYYIKVRAGDNKYMHLKVFKSLWPWLHSTEQEDLVLTGYQVDKNKDDELTGF
# notes: His-tagged
# B17: Clone 68 (designed binder)
# chain: MIPGGLSEAKPATPEIQEIVDKVKPQLEEKTGETYGKLEAVQYKTQVVRVQGLWNFQGTNYYIKVRAGDNKYMHLKVFKSLGHHGDHEKWEDLVLTGYQVDKNKDDELTGF
# notes: His-tagged
# B18: Clone 164 (designed binder)
# chain: B17 chain with V50I, Q51W, L53F, N55A, H84E, G85S, D86G, H87Q, E88N, K89L
# notes: His-tagged
# B19: Clone 14 (designed binder)
# chain: MIPGGLSEAKPATPEIQEIVDKVKPQLEEKTGETYGKLEAVQYKTQVVSFLVDPLHLGTNYYIKVRAGDNKYMHLKVFKSLRSFGGEWGWEDLVLTGYQVDKNKDDELTGF
# notes: His-tagged
# B20: Clone 160 (designed binder)
# chain: MIPGGLSEAKPATPEIQEIVDKVKPQLEEKTGETYGKLEAVQYKTQVVGPWYFGSAWGTNYYIKVRAGDNKYMHLKVFKSLWENFHKLEKEDLVLTGYQVDKNKDDELTGF
# notes: His-tagged
# B21: Clone 157 (designed binder)
# chain: MIPGGLSEAKPATPEIQEIVDKVKPQLEEKTGETYGKLEAVQYKTQVVIYYPIWDFHGTNYYIKVRAGDNKYMHLKVFKSLFWGDLKTEDLVLTGYQVDKNKDDELTGF
# notes: His-tagged
# B22: Clone 141 (designed binder)
# chain: MIPGGLSEAKPATPEIQEIVDKVKPQLEEKTGETYGKLEAVQYKTQVVDLHTLKSGVGTNYYIKVRAGDNKYMHLKVFKSLYIKHHLWWIEDLVLTGYQVDKNKDDELTGF
# notes: His-tagged
# B23: Clone 142 (designed binder)
# chain: MIPGGLSEAKPATPEIQEIVDKVKPQLEEKTGETYGKLEAVQYKTQVVSWYKLWSYSGTNYYIKVRAGDNKYMHLKVFKSLFEGRHKDPEEDLVLTGYQVDKNKDDELTGF
# notes: His-tagged
# B24: Clone 147 (designed binder)
# chain: MIPGGLSEAKPATPEIQEIVDKVKPQLEEKTGETYGKLEAVQYKTQVVVHITVEWEGTNYYIKVRAGDNKYMHLKVFKSLIYQRHTQSREDLVLTGYQVDKNKDDELTGF
# notes: His-tagged
# B25: Clone 169 (designed binder)
# chain: MIPGGLSEAKPATPEIQEIVDKVKPQLEEKTGETYGKLEAVQYKTQVVYANIGPWLYGTNYYIKVRAGDNKYMHLKVFKSLFKHRQQLHYTEDLVLTGYQVDKNKDDELTGF
# notes: His-tagged
# B26: Clone 165 (designed binder)
# chain: MIPGGLSEAKPATPEIQEIVDKVKPQLEEKTGETYGKLEAVQYKTQVVNEAESSRFLGTNYYIKVRAGDNKYMHLKVFKSLHDFTLKWKFEDLVLTGYQVDKNKDDELTGF
# notes: His-tagged
# B27: Clone 156 (designed binder)
# chain: MIPGGLSEAKPATPEIQEIVDKVKPQLEEKTGETYGKLEAVQYKTQVVIQQLYKQTWGTNYYIKVRAGDNKYMHLKVFKSLDYQHWPYDFEDLVLTGYQVDKNKDDELTGF
# notes: His-tagged
# B28: Clone 151 (designed binder)
# chain: MIPGGLSEAKPATPEIQEIVDKVKPQLEEKTGETYGKLEAVQYKTQVVWEEVNWRNWGTNYYIKVRAGDNKYMHLKVFKSLVPIHDHLRNEDLVLTGYQVDKNKDDELTGF
# notes: His-tagged
# B29: Clone 150 (designed binder)
# chain: MIPGGLSEAKPATPEIQEIVDKVKPQLEEKTGETYGKLEAVQYKTQVVREVGLWRFQGTNYYIKVRAGDNKYMHLKVFKSLYIGYAGDAQEDLVLTGYQVDKNKDDELTGF
# notes: His-tagged
# B30: Clone 163 (designed binder)
# chain: MIPGGLSEAKPATPEIQEIVDKVKPQLEEKTGETYGKLEAVQYKTQVVISASEIRWYGTNYYIKVRAGDNKYMHLKVFKSLKAFANDYYKEDLVLTGYQVDKNKDDELTGF
# notes: His-tagged
# B31: Clone 143 (designed binder)
# chain: MIPGGLSEAKPATPEIQEIVDKVKPQLEEKTGETYGKLEAVQYKTQVVDWPSHAKFWGTNYYIKVRAGDNKYMHLKVFKSLFLPDKDDPFEDLVLTGYQVDKNKDDELTGF
# notes: His-tagged
# B32: Clone 170 (designed binder)
# chain: MIPGGLSEAKPATPEIQEIVDKVKPQLEEKTGETYGKLEAVQYKTQVVHQFQEIKWFGTNYYIKVRAGDNKYMHLKVFKSLFHRTPGSTTEDLVLTGYQVDKNKDDELTGF
# notes: His-tagged
# B33: Clone 155 (designed binder)
# chain: MIPGGLSEAKPATPEIQEIVDKVKPQLEEKTGETYGKLEAVQYKTQVVWRTGQKWQVGTNYYIKVRAGDNKYMHLKVFKSLAGHYEVHIGEDLVLTGYQVDKNKDDELTGF
# notes: His-tagged
# B34: Clone 137 (designed binder)
# chain: MIPGGLSEAKPATPEIQEIVDKVKPQLEEKTGETYGKLEAVQYKTQVVLWPLQPKNWGTNYYIKVRAGDNKYMHLKVFKSLGWNYLEAIAEDLVLTGYQVDKNKDDELTGF
# notes: His-tagged
# B35: Clone 159 (designed binder)
# chain: MIPGGLSEAKPATPEIQEIVDKVKPQLEEKTGETYGKLEAVQYKTQVVHVHWAWNYLGTNYYIKVRAGDNKYMHLKVFKSLRNFYTFPHEEDLVLTGYQVDKNKDDELTGF
# notes: His-tagged
# B36: Clone 145 (designed binder)
# chain: MIPGGLSEAKPATPEIQEIVDKVKPQLEEKTGETYGKLEAVQYKTQVVYKNVGPWVNGTNYYIKVRAGDNKYMHLKVFKSLYRTNRGHEREDLVLTGYQVDKNKDDELTGF
# notes: His-tagged
# Target: T1, human PD-L1-Fc (R&D Systems) (human, UniProt Q9NZQ7 19-239)
# T1 construct: Bought from R&D Systems; Biotinylated in-house for the phage selection; also called huPD-L1-Fc; human PD-L1-Fc antigen; not shown: Fc part of the bought fusion
# Test: soluble Affimer ELISA
# T1 sequence (Q9NZQ7 19-239 limits assumed): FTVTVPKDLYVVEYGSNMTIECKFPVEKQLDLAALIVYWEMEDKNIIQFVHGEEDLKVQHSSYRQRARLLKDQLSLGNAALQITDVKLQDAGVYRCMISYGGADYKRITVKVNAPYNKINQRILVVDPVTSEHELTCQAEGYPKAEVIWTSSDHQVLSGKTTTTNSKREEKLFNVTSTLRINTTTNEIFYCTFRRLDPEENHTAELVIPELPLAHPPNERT
row,Binder,binding result
1,B1,binds
2,B2,binds
3,B3,binds
4,B4,binds
5,B5,binds
6,B6,binds
7,B7,binds
8,B8,binds
9,B9,binds
10,B10,binds
11,B11,binds
12,B12,binds
13,B13,binds
14,B14,binds
15,B15,binds
16,B16,binds
17,B17,binds
18,B18,binds

row,Binder,binding result
1,B19,binds
2,B20,binds
3,B21,binds
4,B22,binds
5,B23,binds
6,B24,binds
7,B25,binds
8,B26,binds
9,B27,binds
10,B28,binds
11,B29,binds
12,B30,binds
13,B31,binds
14,B32,binds
15,B33,binds
16,B34,binds
17,B35,binds
18,B36,binds
